# Laboratory results published in patent US20130338077A1 (INDIANA UNIVERSITY RESEARCH AND TECHNOLOGY, published 2013).
# Biological target: T1, recombinant human p65 protein, full-length, with DDK (r-p65:DDK) (human, UniProt Q04206 1-551)
# T1 construct: mature; also called full-length r-p65:DDK; p65 subunit of NF-kB; not shown: DDK tag
# Assay: kinetic ELISA, plate-bound GILZ-P probed with r-p65:DDK; Scatchard plot and linear regression; plate-bound GILZ-P (synthetic peptide), not r-GILZ
# T1 sequence (Q04206 whole entry): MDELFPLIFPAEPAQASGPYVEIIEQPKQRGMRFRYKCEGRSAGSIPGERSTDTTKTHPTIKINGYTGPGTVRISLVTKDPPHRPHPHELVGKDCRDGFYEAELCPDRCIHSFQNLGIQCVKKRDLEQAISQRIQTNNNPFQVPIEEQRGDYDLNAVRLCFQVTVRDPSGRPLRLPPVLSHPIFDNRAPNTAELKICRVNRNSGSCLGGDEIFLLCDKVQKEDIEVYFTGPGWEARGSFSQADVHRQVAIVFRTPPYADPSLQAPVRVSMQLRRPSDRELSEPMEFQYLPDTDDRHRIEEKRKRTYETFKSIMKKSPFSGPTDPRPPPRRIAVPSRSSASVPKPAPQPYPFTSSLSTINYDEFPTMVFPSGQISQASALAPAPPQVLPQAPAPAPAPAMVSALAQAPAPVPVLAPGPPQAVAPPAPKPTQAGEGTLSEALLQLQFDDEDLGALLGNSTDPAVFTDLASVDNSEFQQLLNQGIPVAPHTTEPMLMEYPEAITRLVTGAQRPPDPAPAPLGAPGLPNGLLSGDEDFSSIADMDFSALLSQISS
binder,measurement,value
"Ac-CLSPEEPAPESPQVPEAPGGSAV-NH2 (also called GILZ-WT; GILZ-P115-137) [GILZ-peptide (GILZ-P), synthetic peptide from the carboxy terminus of GILZ]",Kd,1120 nM
